Laboratory results published in US20060058504A1, “Peptides capable of inducing attraction to the axonal growth and their use for treating neurodegenerative diseases” (Centre National de la Recherche Scientific (CNRS), priority 2002, published 2006).
Entries after “also recorded” stand apart in the source; their conditions may differ.

Columns and labels:
[1] = test system: L1; details: mutant bound to itself; cited from earlier work
[2] = test system: NP-1; assay: Binding of L1Fc chimeras to NP-1 expressing COS7 cells (immunofluorescence)
Method: The mutant L1Fc chimeras were produced and purified as described previously (De Angelis et al., 1999). Briefly, COS-7 cells were transiently transfected with 10 μg DNA per 150 mm culture dish, the soluble Fc chimeric protein was allowed to accumulate in the media for 6 days and was recovered and purified by protein A-Sepharose affinity chromatography. In the binding experiments, L1Fcs were cross-linked to anti-human Fc antibodies (50 μg/ml, Jackson Immunoresearch) for 1 hr at 37° C. Binding detection to NP-1 requested concentrations of L1Fcs 10 folds higher than L1. Antibody conjugated L1-Fc protein was then incubated with monolayers of COS7 cells transiently transfected with expression vectors encoding full length human L1 or myc-tagged NP-1 where the cytoplasmic domain is deleted (gift of J. Raper, 2000 and Renzi et al., 1999). Following incubation, the cells were fixed with 4% PFA, and processed for double-immunofluorescence detection. NP-1 was detected using a mouse anti-c myc antibody (clone 9E10, Sigma) and L1 using a rat monoclonal anti-L1 antibody. Secondary antibody anti-c-myc (Texas-red conjugated anti-mouse antibodies) was used to detect NP-1, anti-L1 (Texas red conjugated anti-rat antibodies) to detect L1, and anti-Fc (FITC conjugated anti-rabbit antibodies) to detect bound L1Fc chimeras. After secondary antibody incubation, the cells were washed with PBS and mounted in Mowiol (Calbiochem).
Next, we examined the ability of the mutant L1 Fc chimeras to bind NP-1. COS7 cells were transfected with a vector encoding the extracellular and transmembrane domains of NP-1 fused to a myc tag (ANP-1, Renzi et al., J. Neurosci., 15:7870-7880, 1999), and incubated with the mutant L1Fc chimeras. Binding was detected by immunofluorescence. […] Binding of L120V, G121S and A426D L1Fcs to NP-1 is illustrated in FIG. 3.

[3] = test system: cortical axons repelled by Sema3A secreted from the ventral spinal cord; assay: Co-culture of cortical slices and ventral spinal cord explants (axon guidance response to Sema3A); format: cell-based, mice; details: chimera 3 μg/ml in culture medium
Method in brief: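 Cortical slices from P0–P2 mice were co-cultured in a 3D plasma clot with ventral cervical spinal cord explants, alone or with L1Fc chimeras (3 μg/ml), ODQ (10^−5 M) or 7NI ([…]). After 1–2 DIV and PFA fixation, guidance was scored from −2 (repulsion) to +2 (attraction). Axon number and the three longest fibre lengths were measured in proximal and distal 600 μm regions.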

[4] = target: T1, F3, axonin-1 and TAX-1 (Homo sapiens, UniProt Q02246); details: TAX-1; cited from earlier work
T1 sequence (Q02246 31-1012): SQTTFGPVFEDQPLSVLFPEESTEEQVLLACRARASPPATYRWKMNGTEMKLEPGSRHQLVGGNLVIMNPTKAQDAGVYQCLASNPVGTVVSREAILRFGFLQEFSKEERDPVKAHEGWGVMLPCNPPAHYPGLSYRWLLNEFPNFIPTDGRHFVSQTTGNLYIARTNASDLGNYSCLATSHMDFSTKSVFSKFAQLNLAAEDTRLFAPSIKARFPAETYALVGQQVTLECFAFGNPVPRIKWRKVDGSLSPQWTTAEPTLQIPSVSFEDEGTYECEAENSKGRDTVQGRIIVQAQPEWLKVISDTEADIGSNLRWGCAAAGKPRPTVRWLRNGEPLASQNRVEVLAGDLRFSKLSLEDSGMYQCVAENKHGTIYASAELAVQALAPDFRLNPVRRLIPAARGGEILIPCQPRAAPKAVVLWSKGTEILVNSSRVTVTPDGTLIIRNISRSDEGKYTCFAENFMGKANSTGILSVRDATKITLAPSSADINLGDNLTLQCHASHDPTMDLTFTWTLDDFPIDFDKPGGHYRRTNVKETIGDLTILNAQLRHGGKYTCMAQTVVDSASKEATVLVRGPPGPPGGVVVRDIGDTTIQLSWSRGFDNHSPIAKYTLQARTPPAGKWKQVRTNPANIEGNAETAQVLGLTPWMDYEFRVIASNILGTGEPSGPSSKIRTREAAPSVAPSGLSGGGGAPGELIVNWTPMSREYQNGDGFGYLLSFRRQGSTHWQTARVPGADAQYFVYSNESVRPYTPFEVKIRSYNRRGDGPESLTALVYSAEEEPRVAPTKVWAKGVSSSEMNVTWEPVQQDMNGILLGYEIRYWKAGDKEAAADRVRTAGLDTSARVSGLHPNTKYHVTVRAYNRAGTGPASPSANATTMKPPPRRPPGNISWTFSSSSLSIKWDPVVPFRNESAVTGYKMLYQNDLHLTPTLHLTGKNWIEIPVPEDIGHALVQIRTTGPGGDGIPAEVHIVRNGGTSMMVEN

[5] = test system: F3, axonin-1 and TAX-1; details: F3, axonin-1 (and TAX-1 where stated); cited from earlier work

B1: D598N: L1Fc chimera with missense mutation D598N in Ig domain 6 (protein)
chain: IQIPEEYEGHHVMEPPVITEQSPRRLVVFPTDDISLKCEASGKPEVQFRWTRDGVHFKPKEELGVTVYQSPHSGSFTITGNNSNFAQRFQGIYRCFASNKLGTAMSHEIRLMAEGAPKWPKETVKPVEVEEGESVVLPCNPPPSAEPLRIYWMNSKILHIKQDERVTMGQNGNLYFANVLTSDNHSDYICHAHFPGTRTIIQKEPIDLRVKATNSMIDRKPRLLFPTNSSSHLVALQGQPLVLECIAEGFPTPTIKWLRPSGPMPADRVTYQNHNKTLQLLKVGEEDDGEYRCLAENSLGSARHAYYVTVEAAPYWLHKPQSHLYGPGETARLDCQVQGRPQPEVTWRINGIPVEELAKDQKYRIQRGALILSNVQPSDTMVTQCEARNRHGLLLANAYIYVVQLPAKILTADNQTYMAVQGSTAYLLCKAFGAPVPSVQWLDEDGTTVLQDERFFPYANGTLGIRDLQANDTGRYFCLAANDQNNVTIMANLKVKDATQITQGPRSTIEKKGSRVTFTCQASFDPSLQPSITWRGDGRDLQELGDSDKYFIEDGRLVIHSLDYSDQGNYSCVASTELNVVESRAQLLVVGSPGPVPRLVLSDLHLLTQSQVRVSWSPAEDHNAPIEKYDIEFEDKEMAPEKWYSLGKVPGNQTSTTLKLSPYVHYTFRVTAINKYGPGEPSPVSETVVTPEAAPEKNPVDVKGEGNETTNMVITWKPLRWMDWNAPQVQYRVQWRPQGTRGPWQEQIVSDPFLVVSNTSTFVPYEIKVQAVNSQGKGPEPQVTIGYSGEDYPQAIPELEGIEILNSSAVLVKWRPVDLAQVKGHLRGYNVTYWREGSQRKHSKRHIHKDHVVVPANTTSVILSGLRPYSSYHLEVQAFNGRGSGPASEFTFSTPEGVPGHPEALHLECQSNTSLLLRWQPPLSHNGVLTGYVLSYHPLDEGGKGQLSFNLRDPELRTHNLTDLSPHLRYRFQLQATTKEGPGEAIVREGGTMALSGISDFGNISATAGENYSVVSWVPKEGQCNFRFHILFKALGEEKGGASLSPQYVSYNQSSYTQWDLQPDTDYEIHLFKERMFRHQMAVKTNGTGRVRLPPAGFATE
modifications: left off: a dimerising Fc or GST
For B1, the “effect of mutation on homophilic binding” value [1] is listed as “very modest effect”, the “binding to NP-1 expressing cells” value [2] is listed as “bound NP-1 expressing cells” and the “switching of Sema3A repulsion to attraction by L1Fc chimera” value [3] is listed as “able to reverse Sema3A repulsion to attraction; also recorded: efficiently induce switching of Sema3A repulsion to attraction; also recorded: switched Sema3A from repulsion to attraction to the same extent as wild type L1Fc”. The “effect of mutation on heterophilic binding to TAX-1” value [4] was “though not to TAX-1” and the “effect of mutation on heterophilic binding” value [5] was “significantly reduces”.
